Experimental data reported in publication PMC5464773, “Epistatic mutations in PUMA BH3 drive an alternate binding mode to potently and selectively inhibit anti-apoptotic Bfl-1” (eLife, 2017).

Molecular target: Myc-tagged Bfl-1 (human, UniProt Q16548 1-175)
Assay: fluorescence polarisation; competition: 0–10 μM unlabeled peptide titrated into 50 nM c-myc-tagged receptor plus 25 nM fluoresceinated BIM; 25 mM Tris pH 7.8, 50 mM NaCl, 1 mM EDTA, 5% DMSO, 0.001% v/v Triton-X; 23°C, 3 hr; fit to a complete competitive binding model
Settings: both partners purified

Sequence of Myc-tagged Bfl-1 (Q16548 whole entry): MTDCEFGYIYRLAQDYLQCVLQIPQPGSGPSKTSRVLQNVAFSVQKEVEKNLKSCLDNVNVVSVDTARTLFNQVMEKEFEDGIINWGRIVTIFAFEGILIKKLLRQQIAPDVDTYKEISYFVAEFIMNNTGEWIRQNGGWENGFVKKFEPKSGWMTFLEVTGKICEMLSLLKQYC

Ki: 720 nM
B1: BIM-FS2 (peptide)
chain: RPVIWIAQGLRRAGDEVNAYVAR
modifications: probably N-terminal acetyl and C-terminal amide; 23-mer 1f-4g assumed by analogy with PUMA/FS2; printed E2bV read as E2aV (2b is Ile in BIM, 2a is Glu and FS2 has Val at 2a); A2eA is no change / Myc …
